Measurements from the RNAGym collection of RNA variant scans (doi:10.7554/elife.80360).

B1: CPEB3 Ribozyme (parent)
chain: GGGGGCCACAGCAGAAGCGUUCACGUCGCGGCCCCUGUCAGAUUCUGGUGAAUCUGCGAAUUCUGCUGU

Variants of: B1
Assay: self-cleavage, relative activity (ratio to wild type); higher = more cleavage; co-transcriptional

| Variant | self-cleavage |
| --- | --- |
| A16G U44C | 0.734 |
| A16G U44G | 0.84 |
| A16G U43G | 0.708 |
| A15G G30C | 0.618 |
| A16C G25C | 0.0921 |
| A16C C39G | 0.151 |
| A16C C39U | 0.184 |
| G17A A42G | 0.286 |
| A15U A52G | 0.939 |
| A16C C24A | 0.161 |
| A16C C24U | 0.164 |
| A15U A42G | 0.68 |
| A16U A52U | 0.801 |
| A16U A52C | 0.856 |
| A16U U46G | 0.78 |
| A16U U46A | 0.866 |
| A16U C45U | 0.893 |
| A16U C45G | 0.839 |
| A16G G65A | 0.622 |
| A16G G65U | 0.571 |
| A16U U53C | 0.66 |
| A15C G30C | 0.189 |
| A15U G50A | 0.943 |
| A15G U38A | 0.877 |

| Variant | self-cleavage |
| --- | --- |
| A15U G17C | 0.171 |
| A15U C29U | 0.151 |
| G17A | 0.592 |
| A15U U36C | 0.557 |
| A15G C66G | 0.862 |
| A15G A60U | 0.579 |
| A16G G37A | 0.13 |
| A16C G65C | 0.174 |
| A16U U62A | 0.74 |
| A15G U53A | 0.893 |
| A16U G37C | 0.0966 |
| A15C G41U | 0.463 |
| A16G U49C | 0.854 |
| A16G U49A | 0.598 |
| A16G U26C | 0.555 |
| A15G A16C | 0.145 |
| A16U G41U | 0.497 |
| A16U G41A | 0.411 |
| A15U U69A | 0.961 |
| A15U U69C | 1.03 |
| A16C U55C | 0.165 |
| A16G A51U | 0.914 |
| A15C G68A | 0.966 |
| A15U A51U | 0.851 |

| Variant | self-cleavage |
| --- | --- |
| A16U G65U | 0.4 |
| A16U G65C | 0.462 |
| A15U G68A | 0.937 |
| A15U G68U | 0.967 |
| A16C U62C | 0.222 |
| A16C U62G | 0.148 |
| A16C U62A | 0.152 |
| G17A C33G | 0.188 |
| G17A C33A | 0.21 |
| A15C U53G | 0.558 |
| A15C U53C | 0.451 |
| A15C G31U | 0.241 |
| A15G G47U | 1.04 |
| A15G G47C | 1.05 |
| A16G A52C | 0.927 |
| A16U U67C | 0.856 |
| A15U G48C | 0.965 |
| A15U G48U | 0.9 |
| A16C G68U | 0.408 |
| A15G C22A | 0.191 |
| A15G C22G | 0.157 |
| A16C C18U | 0.128 |
| A16C G47U | 0.427 |
| A15G C24U | 0.87 |

| Variant | self-cleavage |
| --- | --- |
| A15G C24G | 0.405 |
| A15G G68U | 1.01 |
| A15U C45U | 0.858 |
| A15U C45A | 0.795 |
| A16C C45G | 0.272 |
| A16C C45A | 0.264 |
| A16C C45U | 0.339 |
| A16C G48C | 0.409 |
| A15G C39U | 0.893 |
| A15G C39G | 0.928 |
| A16U U69G | 0.972 |
| A16C U21C | 0.174 |
| A15C U46G | 0.929 |
| A15U C63G | 0.764 |
| A15U G25A | 0.121 |
| A15U G25C | 0.165 |
| A16U U36G | 0.111 |
| A16C G50A | 0.23 |
| A16C G50U | 0.306 |
| A15C G47A | 0.889 |
| A15C G47C | 0.894 |
| A16U G31C | 0.147 |
| A16U G31U | 0.295 |
| G17A C35U | 0.345 |

| Variant | self-cleavage |
| --- | --- |
| A16U C54A | 0.637 |
| A16U C54G | 0.662 |
| A16U C54U | 0.895 |
| A16G G19C | 0.158 |
| A16G G19U | 0.184 |
| A16G G19A | 0.163 |
| A15G U64C | 0.939 |
| A15G U64A | 0.845 |
| G17A C22U | 0.148 |
| A16U A59G | 0.909 |
| A16U A59C | 0.427 |
| A15U C32U | 0.913 |
| A16C G30A | 0.188 |
| A16C G30U | 0.131 |
| A15U G28A | 0.161 |
| A15U A40U | 0.288 |
| A16G C32A | 0.607 |
| A16G C32G | 0.125 |
| A15G G37C | 0.239 |
| G17A C32A | 0.164 |
| A16G G28A | 0.215 |
| A16G G28U | 0.188 |
| A16C A60C | 0.215 |
| A16U G58U | 0.814 |

| Variant | self-cleavage |
| --- | --- |
| G17A C63U | 0.313 |
| A16G C54A | 0.413 |
| A16G C54G | 0.581 |
| A16C G31C | 0.113 |
| A16C G31U | 0.124 |
| A16C G31A | 0.0686 |
| A16G C24G | 0.385 |
| A16G C24A | 0.481 |
| A16G C24U | 0.68 |
| A15U U21A | 0.841 |
| A16U G17C | 0.193 |
| A15U U62A | 1.01 |
| A15G G58A | 0.964 |
| A16C G41C | 0.18 |
| A16U U26G | 0.461 |
| A15G C29U | 0.358 |
| A16U U43C | 0.86 |
| A16G U36A | 0.179 |
| A16G U36G | 0.259 |
| A15G G17C | 0.138 |
| A15C G17C | 0.131 |
| A16C A40G | 0.16 |
| G17A A60G | 0.202 |
| G17A A60C | 0.189 |

| Variant | self-cleavage |
| --- | --- |
| A15U C39U | 0.583 |
| A15C U69G | 1.02 |
| A15C U69A | 0.962 |
| A16G G50A | 0.915 |
| A16G G50C | 0.896 |
| A16G G47C | 1.02 |
| A16G G47A | 0.933 |
| A15C G25C | 0.186 |
| A15C G25U | 0.192 |
| A16U C27U | 0.125 |
| A16U C27G | 0.115 |
| A16U C27A | 0.205 |
| A15G U46A | 1.04 |
| A15G U46G | 0.974 |
| A15U C24A | 0.299 |
| A16G G17C | 0.131 |
| A15U G56U | 0.517 |
| A16U A23C | 0.701 |
| G17A A52C | 0.431 |
| A16G U38G | 0.143 |
| A15G A51U | 0.963 |
| A15G A51G | 1.05 |
| A16U G68A | 0.953 |
